Data: the nanobody polyreactivity screen of Harvey et al. (2022)

Test: yeast display, Sf9 membrane polyspecificity reagent, FACS + sequencing; frameworks hold sequencing errors
Outline: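 After 36–48 hours of galactose induction, yeast (Saccharomyces cerevisiae BJ5465) displaying a synthetic nanobody library were stained at 4 °C for 1 hour with 10% biotinylated, detergent-solubilized Sf9 membrane reagent. Streptavidin microbeads enriched the stained cells before FACS sorting into low and high (top ~1%) gates on anti-HA and streptavidin fluorescence. Each clone's polyreactivity label reflects its gate of origin.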

Row | Sequence | polyreactivity (PSR sort gate)
1 | QVQLVESGGGLVQAGGSLRLSCAASGSTFLPYAMGWYRQAPGKERELVAAIRWSVGSTYYADSVKGRFTISRDNAKNTVYLQMNSLIPEVTAGYYCYAVVYVVGDFDYWGQGSQVTVSS | high polyreactivity
2 | QVQLVESGGGIVQAGGSLRLSCAASGNIFHKNAMGWYRQAPGKERELVASISWSGGSTYYADSVKGRFTISRDNAKNTVYLQMNSLKPEDTAVYYCATDAFGYPGNRYALNDYWGQGTQVTVSS | low polyreactivity
3 | QVQLVESGGGLVQAGGSLRLSCAASGIIFTFNARGWDRQAPGKERELVASISITGDTYYADSVKGRFTISRDNAKNTVYLQMNSLKPEDTAVYYCAAEYYFYSRHWYISYDYWGQGTQVTVSS | low polyreactivity
4 | QVQLQECGGGLVQAGGSLRLSCAASGTFSNSVKWLYCQAPGKEREFVATIGVGGSTNYADSVIGRFTISRDNAKNTVYLQMNSRKQEDTAVYHCAAYGAASNFHYYRGQGTQVTVSS | low polyreactivity
5 | QVQLVESGGGLVQAGGSLRLSCAASGLIFRVNAMGWYRQAPGKERELVADINSGGGTSYADSVKGRFTISRDNAKNTVYLQMNSLKPEDTAVYYCAAAWWPYSYPTYYSQYDYWGQGTQVTVSS | low polyreactivity
6 | QVQLVESGGALVQAGGRLRLSCAASVYIQHKYAMGRYRQAPGKERDLVATISGGGGSTYYADSVKGRFTISRDNAKNTVYLQMNSLKPEDTSVYYCAKEYPWLPRSYEYWGQGTQVTVSS | low polyreactivity
7 | QVQLVESGGGLVQAGGSLRLSCAASGSTFVSYTMGWYRQAPGKERELVAAISYNGARTYYADSVKGRFTISRDNAKNTVYLQMISLKPEDTAVYDCARRYYSQYDYWGQGTQVTVSS | high polyreactivity
8 | QVQIVESGGGLVQARGSLRLSCAAYGRIIYRYAMGWYRQAPGKERELVAAISASGRTYYADSVKGRFTISRDNAKNTVYLQMNSLKPADTAVYYCAKVAAGSLGSWGQGTQVTVSS | high polyreactivity
9 | QVQLVESGGGLVQAGGSLRLSCAASGRNFNSYAMGWYRQAPGKERELVAAISWNGGSTYYADSVKGRFTISRDNAKITVYLQMNSLKPEDTAVYYCAATYLLRGDAYYSWGQGTQVTVSS | high polyreactivity
10 | QVQLEESVGGLVQAGGSLRLTCAASGSTLSYYSMGWYRQAPGKERELVARITRSGGRTYYADSVKGRFTISRDNEKNTVYLQINSLKPEDTGVYYCNKVAYYSRRMDYWGQGTLVTVSS | high polyreactivity
11 | QVQLVESGGGLVHAGSSLRLSCAASGSTYPYNAMGWYRQAPGKERELVAAIDYSGGSTYAVSVKGRFTISRDNAKNTVYLQMNSLTPEDTAVYYCAYCRVVVYDVSGDDEDYDYWGQGSQVTVSS | low polyreactivity
12 | QVQLVESGGGLVQAGGSLRLSCAASGSIFVGYDMGWYRQAPGKERELVASINGGDSTNYADSVKGRFTISRDNAKNTVYLQMNSLKPEDTAVYYCAKDVTYTDEYDYWGQGTQVTVSS | low polyreactivity
13 | QVQLVESGGGLVQAGGSLRLSCAASGRTFGIYVMGWYRQAPGKERELVAAIRGGGTTYYADSVKGRFTISRDNANNTVYLQMNSLKPEDTAVYYCAAESRYQRYDYWGQGTQVTVSS | high polyreactivity
14 | QVQRLESAGGLVQAGGSLRLSCAASGFIFSYYAMGWYRQAPGKERELVAAIDGSGGSTYYADSVKGRFTISRDNAKNTVYLQKNSLKPEDTAVYYCNTLIYIQGLGYDYGGQGTQVTVSS | high polyreactivity
15 | HVQLVESGGGFVQAGGSLRLICAASVRNFDVYSMGWYRQAPGKERELVAAISRRGGSTYYADSVKGRFTISRDNAKNTVYLQMNRLKPEDTAVYYCAAQSRQAYMTYGYWGLGTQVTVSS | high polyreactivity
16 | QVQLVESGGGLVQAGGSLRLSCAAYGSTFIAYAMGWYRQAPGKERELVAAITRGGSTNYADSVKGRFTISRDNAKNTVYLQMNRLKPEDTAVYYCAADRSWGYWGRSRYDYWGQGTQVTVSS | high polyreactivity
17 | QVQLVESGGGLVQAGGTLRLSCAASGRIFSRYVMGWYRQAPGKQRELVASISWSGGSTRYADSVKGRFTISRDNAKNTVYVQMNSLKPEDTAVYYCAARFILSKYGSGVRYNYWGQGTQVTVSS | high polyreactivity
18 | QVHLVESGGGLVQAGGSLRLSCAASGSTIFLYMGWYRQAPGKERELVAAITVSGGSTYYADSVKGRFTISRDNAKNTVYLQMNSLKPEDTAVYYCNADWVLRYDYWGLGTQVTVSS | low polyreactivity
19 | QVQLVESGGGLVQAGGSLRLSCAASGRIFGGYTMGWYRQAPGNERELVAAINSGGSTYYADSVKGRFTISRDNAKITVYLQMNSLKPEDTAVYYCAKVRSYFGKYGYGYWGQGTQVTVSS | high polyreactivity
20 | QVQLVESGGGLVQAGGSLRLICAASGRIFGYNAMGWYRQEPGKERELVAAISSGGSTYYADSVKGRFTISRDHAKNTVYLQMNSLKPEDTAVYYCAAEDYPPYTTEYDYWGQGTQVTVSS | low polyreactivity
21 | QVQLVESGGGLVQAGGSLRLSCAASGRIFANYARGWYRQAPGKERELVAAITASGGSTYYADSVKGRFTISRVNAKNTVYLQMNSLKPEDTAGYYCAKGYRLYTMYSWGQGTQVTVSS | high polyreactivity
22 | QVQLVESGGGLVQAGVILRLSCAASGRIITTYAMGRYRQAPGKERELVAAISARGGRTYYADSVKGRFTISRDNAKNTVYLQMNSLKPEDTAVYYCAAVSIQAYTRRQYDWGQGTQVTVSS | high polyreactivity

Row | Sequence | polyreactivity (PSR sort gate)
23 | QVHLQDSGGGLVQAGGSLRLSCAASCYISDVNDMGWYRQAPGKEREFVAGIGYGGITNYADSVKGRFTISRDNAQNTVYQHMNSLKPKDTAVYNCAVHWGPDSGLYYWGQGTQVTVSS | high polyreactivity
24 | QVQLVESGGGLVQAGGSLRLSCAASGFTFFVNAMGWYRQAPGKERELVAAISIRSGGRTYYADSVKGRFTISRDNAKNTVYLQMNSLKPEDTAVYYCAAESSRPEHTYHYYRFLFDYWGQGTQVTVSS | low polyreactivity
25 | QVQLVESGGGLVQAGGSLRLSCAASGSIFIGYAMGWNRQAPGKERELVAGISSNGGTTYYADSVKGRFTISRDNAKNTVYLQMNSLKPEDTAVYYCATQYYARGYLYDYWGHGTQVTVSS | low polyreactivity
26 | QVQLVESGGGLVQAGGSLRLSCAASGRIFPHYAMGWYRQAPGKERELVAAISRSGVSTYYADSVKGRFTISRDNAKNTVYLQMNSLKPEDTAVYYCNIVRYSFLYSVTYNYWGQGTQVTVSS | high polyreactivity
27 | QVQLVESGGGLVQAGGSLRLSCAASGSTFWYYGMGWYRQAPGKERELVAAITRGGSTYYADSVKGRFTISRDNAKNTVYLQMNSLKPEDTAVYYCAARPRYRAPYGYWGQGTQVTVSS | high polyreactivity
28 | QVQLEESGGALVQAGGSLRLSCAASGNTFGPKAMGWYRQAPGKERELVASINIGGRTNYADSVKGRFTISRDNAKNSVYLQLKSLKPEDTAVYYCNAGSGVQVVWYNAYREYEYWGQGTQVTVSS | low polyreactivity
29 | HVQLVESGGGLVQAGGRLRLSCAASGGTFWHYAMGWYRKAPGKERELFAAIRWRGVRTYYADSVKGRFTISRDNAKNTVYLQMNSLKPEDTAVYYCASTTWRSGRYNYWGQGTQVTVSS | high polyreactivity
30 | QVQLVESGGGLVQAGGSLRLSCAASGITFVDYDMGWYRQAPGKERELVAAITTGSSTYYADSVKGRFTISRDNAKNTVYLQMNSLKPEDTAVYYCARVFEYDYYQQWSYGYWGQGTQVTVSS | low polyreactivity
31 | QVQLEESGGGLVQAGGSLRLSCVASGSTFRFYAMGWYRPAPGNERQLVAAITWRGTSTYYADSVKGRFTISRDNAKNSVYLQMNSLKPEDTAVYYCNAAGYWPATGDYWGQGTQVTVSS | high polyreactivity
32 | QVQLVESGGGLVQAGGSLRLSCAASGRIFRTNTMGWYRQAPGKERELVAAITRGGSTYYADSVKGRFTISRDNAKNTVYLQMNSLKPEDTAVYYCAASRYYNSVHNGGDYWGQGTQVTVSS | high polyreactivity
33 | QVQLVESGGGLVQAGGSLRLSCAASGFIFFTYAMGWYRQAPGKERELVAAISSRGGSTYYADSVQGRFTISRDNAKKTVYLQMNSLKPEDTAVYYCAAQAYGGYPYGYWGQGTQVTVSS | high polyreactivity
34 | QVQLVESGGGLVQAGGSLRLSCAASGFTFLGYDMGWYRQAPGKERELVAAIDYSGGSTYYADSVKGRFTISRDNAKNTVYLQMNSLKPEDTAVYYCAAEYQSGPYTWYEYWGQGTQVTVSS | high polyreactivity
35 | QVQLVESGGGLVQAGGSLRLSCAASGSTFIFYVMVWYRQAPGKERELVASITGNGTSTYYADSVKGRFTISRDNAKNTVYLQMNSLKPEDSAVYYCNAVFSPSRYDYWGQGTQVTVSS | low polyreactivity
36 | QVQLVESGGGLVQAGGSLRLSCAASGSIFWPNAMGWYRQAPGKERELVAAISRGGSTNYADSVKGRFTISRDNAKNTVYLQMNSLKPEDTAVYYCATDAYYYNLLYLFPRYDYWGQGTQVTVSS | low polyreactivity
37 | QVQLVESGGGLVQAGGSLRLSCVASGRTLNYNVMGWYRQAPGKERELVAAISWSGGSTYADSVKGRFTISRDNAKNTVYLQMNSLKPEDTAVYYCNKRFTTRVNRRPVYYWGQGTQVTVSS | low polyreactivity
38 | QVQLVESGGGLVQAGGSLRLSCAASGSTLSYYAMGWYRQAPGKERELVAAISFSGGITYYADSVKGRFTISRDNAKNTVYLQMNSLKPEDTAVYYCNAEYQVYRAYVIWYDYWGQGTQVTVSS | high polyreactivity
39 | QGQLVESGGGLVQAGGSLRLSCAASGRTYDYNAMGWYRQAPWKEWELVAAISSGGSITHYADSVKGRFTISRDNAKNTVYFQMYSLKPEDTAVYYCNAAHLAHRFIGYTRWNYYYWGQGTQVTVTS | high polyreactivity
40 | QVQLVESGGGLDQAGGSLRLSCAASGSIFYRNAMGWYRQAPGKEMELVAAISGRGGSTNYADSVKGRFTISRDNAKNTVYLPMNSLKPEDTAVYYCNRFGVSNILVRGGYWGLGTQVTVSS | high polyreactivity
41 | QVQLVESGGGLVHAGGSLRLSCAASGFIFKRYPMGWNRPAHGKERELVAVITRSGGSTYYADSVKGRFTISRDNAKNTVYLQMNSLKPEDTAVYYCAAQGLLKFYWGQGTQVTVSS | high polyreactivity
42 | QVQLVESGGGLVQAGGSLRLSCAASGSTFEPYARGWYRQAPGKERELVAAISSSGSTNYADSVKGRFTISRDNAKNTVYLQMNSLKPEDTAVYYCNARRQRSPIEVCERGYWGQGTQVTVSS | high polyreactivity
43 | QVQLVESGGGLVQAGGSLRLSCAASGSIFARNAMGWYRQAPGKERELVAAITWGGGITYYADSVKGRFTISRDNAKNTVYLQMNSLKPEDTAVYYCATDGYSYFTDRLDYWGQGTQVTVSS | low polyreactivity
